17 molecules from US20250376539A1 (KIRA PHARMACEUTICALS SUZHOU, published 2025) can be followed below.

Substitutions are numbered along the chain they refer to.

T1: recombinant human complement C2 (NP_000054.2), C-terminal 6His-tag, made in house (CHO cell expression) (human, UniProt P06681 21-752)
T1 construct: a linker before the tag is not described; also called human C2; Human C2
T1 sequence: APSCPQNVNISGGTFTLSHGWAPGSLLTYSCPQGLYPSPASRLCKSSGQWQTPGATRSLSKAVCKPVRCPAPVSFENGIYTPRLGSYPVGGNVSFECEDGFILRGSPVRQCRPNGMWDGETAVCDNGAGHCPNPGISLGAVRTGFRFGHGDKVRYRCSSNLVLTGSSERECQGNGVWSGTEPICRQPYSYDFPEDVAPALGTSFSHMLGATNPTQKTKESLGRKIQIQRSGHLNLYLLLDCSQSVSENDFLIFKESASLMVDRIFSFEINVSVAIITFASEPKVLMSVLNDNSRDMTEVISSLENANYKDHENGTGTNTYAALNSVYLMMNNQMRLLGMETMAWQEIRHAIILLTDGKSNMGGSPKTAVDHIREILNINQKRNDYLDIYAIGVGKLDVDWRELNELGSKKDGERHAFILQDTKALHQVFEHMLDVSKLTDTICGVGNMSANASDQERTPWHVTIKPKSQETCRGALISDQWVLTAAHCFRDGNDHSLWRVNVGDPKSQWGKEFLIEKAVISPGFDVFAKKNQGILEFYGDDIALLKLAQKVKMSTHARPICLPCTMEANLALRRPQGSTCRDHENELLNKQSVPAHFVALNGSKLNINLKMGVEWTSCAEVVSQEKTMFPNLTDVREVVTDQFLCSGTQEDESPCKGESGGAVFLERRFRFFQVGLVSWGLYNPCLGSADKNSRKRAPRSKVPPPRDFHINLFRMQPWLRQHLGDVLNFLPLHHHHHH

B1: 3.2 H2-10 parental (antibody, V domains shown)
VH: EVQLLESGGGLVQPGGSLRLSCAASGFTFRHYAMSWVRQAPGKGLEWVSLISGSGASTHYADSVKGRFTISRDNSENMLYLQMNSLRAEDTAVYYCAKDSLAVAGSEYFQHWGQGTLVTVSS
VL: SYVLTQAPSVSVAPGQTARITCGGNYFGGKSVHWYQQRPGQAPVLVVYDDSDRPSGIPERFSGSKSGNTATLAISRVEAGDEAAYYCQVYDTSSDHWVFGGGTKLTVL
notes: Histidine mutant of 3.2
B2: 3.2 H2-10 × L1-5 (antibody, V domains shown)
VH: B1 VH
VL: B1 VL with F27H
notes: Histidine mutant of 3.2
B3: 3.2 H2-10 × L1-8 (antibody, V domains shown)
VH: B1 VH
VL: B1 VL with K30H
notes: Histidine mutant of 3.2
B4: 3.2 H2-10 × L1-4 (antibody, V domains shown)
VH: B1 VH
VL: B1 VL with Y26H
notes: Histidine mutant of 3.2
B5: 3.2 H2-10 × L1-7 (antibody, V domains shown)
VH: B1 VH
VL: B1 VL with G29H
notes: Histidine mutant of 3.2
B6: 3.2 H2-10 × L1-10 (antibody, V domains shown)
VH: B1 VH
VL: B1 VL with V32H
notes: Histidine mutant of 3.2
B7: 3.2 H2-10 × L2-1 (antibody, V domains shown)
VH: B1 VH
VL: B1 VL with D49H
notes: Histidine mutant of 3.2
B8: 3.2 H2-10 × L3-7 (antibody, V domains shown)
VH: B1 VH
VL: B1 VL with S94H
notes: Histidine mutant of 3.2
B9: 3.2 H2-10 × L1-2 (antibody, V domains shown)
VH: B1 VH
VL: B1 VL with G24H
notes: Histidine mutant of 3.2
B10: 3.2 H2-10 × L3-4 (antibody, V domains shown)
VH: B1 VH
VL: B1 VL with D91H
notes: Histidine mutant of 3.2
B11: 3.2 H2-10 × L2-3 (antibody, V domains shown)
VH: B1 VH
VL: B1 VL with S51H
notes: Histidine mutant of 3.2
B12: 3.2 H2-10 × L2-7 (antibody, V domains shown)
VH: B1 VH
VL: B1 VL with S55H
notes: Histidine mutant of 3.2
B13: 3.2 H2-10 × L3-5 (antibody, V domains shown)
VH: B1 VH
VL: B1 VL with T92H
notes: Histidine mutant of 3.2
B14: 3.2 H2-10 × L3-11 (antibody, V domains shown)
VH: B1 VH
VL: B1 VL with V98H
notes: Histidine mutant of 3.2
B15: 3.2 H2-10 × L2-6 (antibody, V domains shown)
VH: B1 VH
VL: B1 VL with P54H
notes: Histidine mutant of 3.2
B16: 3.2 H2-10 × L2-5 (antibody, V domains shown)
VH: B1 VH
VL: B1 VL with R53H
notes: Histidine mutant of 3.2
B17: 3.2 H2-10 × L3-6 (antibody, V domains shown)
VH: B1 VH
VL: B1 VL with S93H
notes: Histidine mutant of 3.2

One test addresses T1, recombinant human complement C2 …. In words: BLI (Gator), antibody on probe; 600 s association at pH 7.4, 600 s dissociation at pH 5.8. The protocol:
(§1) The histidine mutant constructs in Table 4 were tested for their pH-dependent dissociation from human C2. Probe-immobilized anti-C2 antibodies were incubated with C2 at pH 7.4 for 600s, followed by a 600s dissociation period in K Buffer at pH 7.4 or pH 5.8. The data were processed and analyzed by the Gator evaluation software.
As for B1, the “Dissociation (%) pH 5.8” value stood at 51.3%.
B2: the “Dissociation (%) pH 5.8” value came out at 66.7%.
As to B3, the “Dissociation (%) pH 5.8” value worked out at 51.8%.
For the molecule B4, the “Dissociation (%) pH 5.8” value turned out to be 55.8%.
On to B5, for which the “Dissociation (%) pH 5.8” value worked out at 52%.
In the case of B6, the “Dissociation (%) pH 5.8” value was 56.6%.
As to B7, the “Dissociation (%) pH 5.8” value was found to be 81.3%.
Same read-out and setting: then B8, with 60%; and B9, with 56.5%; and B10, with 82.8%.
As for B11, the “Dissociation (%) pH 5.8” value stood at 46.2%.
B12: the “Dissociation (%) pH 5.8” value was 52.7%.
As for B13, the “Dissociation (%) pH 5.8” value turned out to be 90.7%.
As to B14, the “Dissociation (%) pH 5.8” value came to 62.6%.
As to B15, the “Dissociation (%) pH 5.8” value came to 52.6%.
Consider B16, for which the “Dissociation (%) pH 5.8” value was 51.6%.
Consider B17, for which the “Dissociation (%) pH 5.8” value was 68.7%.

The next test shares this target. Nature of the test: BLI (Gator); ratio of dissociation at pH 5.8 to pH 7.4. The protocol: as §1
Consider B1, for which the “Fold dissociation pH 5.8/pH 7.4” value came out at 6.6 fold.
As for B2, the “Fold dissociation pH 5.8/pH 7.4” value is 10.4 fold.
B3: the “Fold dissociation pH 5.8/pH 7.4” value stood at 10.4 fold.
The same measure, in the same setting: the same measure for B4: 9.5 fold; for B5: 12.8 fold.
For the molecule B6, the “Fold dissociation pH 5.8/pH 7.4” value turned out to be 10.4 fold.
Consider B7, for which the “Fold dissociation pH 5.8/pH 7.4” value is 5.8 fold.
Consider B8, for which the “Fold dissociation pH 5.8/pH 7.4” value stood at 8.6 fold.
The same measure, in the same setting: then B9, with 11.1 fold.
On to B10, for which the “Fold dissociation pH 5.8/pH 7.4” value worked out at 6.2 fold.
On to B11, for which the “Fold dissociation pH 5.8/pH 7.4” value was found to be 8.1 fold.
For B12, the “Fold dissociation pH 5.8/pH 7.4” value is 9.8 fold.
With B13, the “Fold dissociation pH 5.8/pH 7.4” value was 7.2 fold.
With B14, the “Fold dissociation pH 5.8/pH 7.4” value was found to be 8.7 fold.
As to B15, the “Fold dissociation pH 5.8/pH 7.4” value came to 8.8 fold.
With B16, the “Fold dissociation pH 5.8/pH 7.4” value was 9.7 fold.
Take B17: the “Fold dissociation pH 5.8/pH 7.4” value is 9 fold.

Another test shares this target. Nature of the test: binding kinetics, neutral pH (BLI presumed).
As for B2, the Kd came to 410 pM, the off-rate (koff) worked out at 0.000112 s⁻¹ and the on-rate constant (kon) came to 272000 M⁻¹ s⁻¹.
For B4 the same measures were 280 pM, 8.18e-05 s⁻¹ and 293000 M⁻¹ s⁻¹.
Regarding B6, the Kd was 329 pM, the off-rate (koff) turned out to be 8.72e-05 s⁻¹ and the on-rate constant (kon) is 265000 M⁻¹ s⁻¹.
B9: the dissociation constant (Kd) turned out to be 330 pM, the koff was found to be 9.39e-05 s⁻¹ and the on-rate (kon) was 284000 M⁻¹ s⁻¹.
In the same order, the values of B17 are 420 pM, 0.000119 s⁻¹ and 283000 M⁻¹ s⁻¹.

The next test shares this target. Nature of the test: BLI (Gator), antibody on probe; 600 s association at pH 7.4, 600 s dissociation at pH 7.4. The protocol:
as §1
With B1, the “Dissociation (%) pH 7.4” value turned out to be 7.74%.
As for B2, the “Dissociation (%) pH 7.4” value came to 6.42%.
The same measure, in the same setting: then B3, with 5%; and B4, with 5.9%; and B5, with 4.05%.
For B6, the “Dissociation (%) pH 7.4” value worked out at 5.45%.
On to B7, for which the “Dissociation (%) pH 7.4” value stood at 13.9%.
Take B8: the “Dissociation (%) pH 7.4” value turned out to be 7%.
On the same count and under the same terms, the same measure for B9: 5.1%.
Turning to B10, the “Dissociation (%) pH 7.4” value was found to be 13.3%.
In the case of B11, the “Dissociation (%) pH 7.4” value worked out at 5.69%.
B12: the “Dissociation (%) pH 7.4” value turned out to be 5.39%.
B13: the “Dissociation (%) pH 7.4” value was determined as 12.6%.
As for B14, the “Dissociation (%) pH 7.4” value worked out at 7.16%.
In the case of B15, the “Dissociation (%) pH 7.4” value came to 5.97%.
As to B16, the “Dissociation (%) pH 7.4” value worked out at 5.33%.
With B17, the “Dissociation (%) pH 7.4” value came to 7.61%.
